Experimental data: paper PMC7895384

Tests used:
[1] = biological target: Six4-HA (HA-tagged Six4, Six4-3xHA) (Drosophila); test: co-IP; two of the three tagged proteins co-expressed in S2 cells; graded concentrations (150mM to 1200mM) of NaCl in the 1% NP-40 lysis buffer (S7C-E Fig; lanes with two proteins of S7F Fig, % co-IP quantified from band intensities, n = 3)
[2] = biological target: Six4-HA (HA-tagged Six4, Six4-3xHA) (Drosophila); test: co-IP; Six4-HA, Myc-Erm and Flag-PntP1 all three co-expressed in S2 cells; IP with anti-HA or anti-Flag antibody; 150mM or 1200mM NaCl; % co-IP quantified from band intensities, normalized by the IPed protein, n = 3 (S7F Fig)

Substance: Myc-Erm (Myc-tagged Earmuff) (from UniProt Q9VQ56 1-611) (natural protein)
- % co-IPed Myc-Erm with the anti-HA antibody (1200mM NaCl, without Flag-PntP1) [1]: 6.7%
- % co-IPed Myc-Erm with the anti-HA antibody (1200mM NaCl, Flag-PntP1 co-expressed) [2]: 13.6%
